Data published in patent US20210324080A1.

Experiments:
[1] = target: monkey CTLA-4, full length, on transfected HEK293 cells (monkey); experiment: FACS, monkey CTLA-4 expressing cells
[2] = target: human CTLA-4 (Y201V), full length, on transfected cells (human) (UniProt P16410); experiment: FACS, CHOK1-hCTLA-4 cells
[3] = target: human CTLA-4 (Y201V), full length, on transfected cells (human) (UniProt P16410); experiment: FACS, human CTLA-4 expressing cells
[4] = target: CTLA-4-hFc (immunogen A; hFc-labeled CTLA-4 extracellular domain protein) (human) (UniProt P16410); experiment: blocking assay, CTLA-4 protein, competitor B7.2
CTLA-4-hFc (immunogen A; hFc-labeled CTLA-4 extracellular domain protein) (human), sequence (P16410 36-161 limits assumed): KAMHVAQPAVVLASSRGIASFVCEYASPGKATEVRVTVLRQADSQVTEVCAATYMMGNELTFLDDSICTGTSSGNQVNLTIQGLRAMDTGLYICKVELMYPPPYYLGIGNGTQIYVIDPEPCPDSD

[5] = target: CTLA-4-hFc (immunogen A; hFc-labeled CTLA-4 extracellular domain protein) (human) (UniProt P16410); experiment: blocking assay, CTLA-4 protein, competitor B7.1
[6] = target: monkey CTLA-4, full length, on transfected HEK293 cells (monkey); experiment: FACS, 293F-cCTLA-4 cells
[7] = target: CTLA-4-hFc (immunogen A; hFc-labeled CTLA-4 extracellular domain protein) (human) (UniProt P16410); experiment: ELISA, coated CTLA-4-hFc, competitor biotin-B7.2-hFc
[8] = target: CTLA-4-hFc (immunogen A; hFc-labeled CTLA-4 extracellular domain protein) (human) (UniProt P16410); experiment: ELISA, coated CTLA-4-hFc, competitor biotin-B7.1-hFc

human CTLA-4 (Y201V), full length, on transfected cells (human), sequence (P16410 36-223 Y201V): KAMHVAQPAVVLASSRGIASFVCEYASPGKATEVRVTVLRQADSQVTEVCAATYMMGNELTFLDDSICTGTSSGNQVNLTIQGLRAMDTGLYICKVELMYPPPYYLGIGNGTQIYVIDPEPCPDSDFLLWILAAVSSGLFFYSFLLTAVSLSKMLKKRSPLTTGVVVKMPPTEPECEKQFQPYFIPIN

IgG control (human IgG) (antibody) gave an MFI at 0.000128 nM [1] of 3, an MFI at 0.0128 nM [1] of 3 and an MFI at 0.064 nM [1] of 3. The MFI at 0.32 nM [1] was 2, the MFI at 1.6 nM [1] was 3 and the MFI at 8 nM [1] was 3. For the same substance, the MFI at 40 nM [1] was 3, the MFI at 200 nM [1] was 5 and the MFI at 0.07 nM [2] was 2. For the same substance, the MFI at 0.67 nM [2] was 2, the MFI at 6.67 nM [2] was 3 and the MFI at 66.67 nM [2] was 8. The MFI at 0.000128 nM [3] was 3, the MFI at 0.0128 nM [3] was 3 and the MFI at 0.064 nM [3] was 3. The MFI at 0.32 nM [3] was 3, the MFI at 1.6 nM [3] was 3 and the MFI at 8 nM [3] was 3. For the same substance, the MFI at 40 nM [3] was 4 and the MFI at 200 nM [3] was 6.
hIgG1 (antibody) gave a % Block at 0.000128 nM [4] of 0%, a % Block at 0.0128 nM [4] of 12.3% and a % Block at 0.064 nM [4] of 12.9%. It also gave a % Block at 0.32 nM [4] of 15.5%, a % Block at 1.6 nM [4] of 4.1% and a % Block at 8 nM [4] of 4.9%. For the same substance, the % Block at 40 nM [4] was 18.3%, the % Block at 200 nM [4] was 12.4% and the % Block at 0.000128 nM [5] was 0%. It also gave a % Block at 0.0128 nM [5] of -2%, a % Block at 0.064 nM [5] of 0.2% and a % Block at 1.6 nM [5] of 1.3%. For the same substance, the % Block at 8 nM [5] was -0.1%, the % Block at 40 nM [5] was 1.6% and the % Block at 200 nM [5] was -0.3%. For the same substance, the MFI at 0.000128 nM [6] was 2.7, the MFI at 0.0128 nM [6] was 2.6 and the MFI at 0.064 nM [6] was 2.6. The MFI at 0.32 nM [6] was 2.4, the MFI at 1.6 nM [6] was 2.6 and the MFI at 8 nM [6] was 2.9. It also gave an MFI at 40 nM [6] of 3.3 and an MFI at 200 nM [6] of 4.9.
With hIgG4 (antibody) the Inhibition rate (%) at 0.00091 nM [7] was 0%, the Inhibition rate (%) at 0.091 nM [7] was -8% and the Inhibition rate (%) at 0.274 nM [7] was -10%. For the same substance, the Inhibition rate (%) at 0.823 nM [7] was -1%, the Inhibition rate (%) at 2.5 nM [7] was -7% and the Inhibition rate (%) at 7.4 nM [7] was -12%. It also gave an Inhibition rate (%) at 22.2 nM [7] of 10%, an Inhibition rate (%) at 66.7 nM [7] of 61% and an Inhibition rate (%) at 0.00091 nM [8] of 0%. For the same substance, the Inhibition rate (%) at 0.091 nM [8] was -36%, the Inhibition rate (%) at 0.274 nM [8] was -41% and the Inhibition rate (%) at 0.823 nM [8] was -37%. For the same substance, the Inhibition rate (%) at 2.5 nM [8] was -39%, the Inhibition rate (%) at 7.4 nM [8] was -40% and the Inhibition rate (%) at 22.2 nM [8] was -41%. For the same substance, the Inhibition rate (%) at 66.7 nM [8] was -10%.
